According to PMC4694137:

Experiments:
[1] = molecular target: AgaR1 (SSU05_0448) protein from Streptococcus suis (Streptococcus suis); assay: cross-linking; purified protein (~5 mg/mL) in 15 uL incubated with EGS cross-linker (0, 2.5, 5, 10, 20 umol/L for AgaR2; 0.1, 0.2, 0.5, 1.0, 2.5, 5, 10, 20 umol/L for AgaR1) for 1 h at room temperature; 12% SDS-PAGE, Coomassie staining
[2] = molecular target: AgaR2 (SSU05_0447) protein from Streptococcus suis (Streptococcus suis); assay: as above

How did the stoichiometry N [1] turn out when “AgaR1 (SSU05_0448) protein from Streptococcus suis (natural protein)” was run?
Its stoichiometry N is 2.

For “AgaR2 (SSU05_0447) protein from Streptococcus suis (natural protein)”, which stoichiometry N [2] is on record?
Its stoichiometry N is 2.
